From the DeepSol protein solubility set

Assay: soluble on expression in E. coli; label from the status in PepcDB or PDB records

MALDNRHRLIVGKLAEAFGLPENVIEKTLTQDKQAVNSFFTPAGPPSLVFVYQVKEDKLKDGSVGPVDNKPTLHRIGPHERIHNKGVYFTRLNPKGINEKTLEADMGSGELSGGALENFKAIVSDLYLPIMQEQQQWGKMSTEYLEDFLSSTAKFGSMLTEAVATVSGGVELRMPDPRYIDQYGDLRPAGITQAAGDDDTLQEMEECLTEWCREAELLLNQTNKIKDGEEPGPDTELEYWRTRMSNFNSITEHLKTKECKLVLGICSHAKTKAYLRWRALDVQITDAANESKDNVKYLATLEKSMEPMYQGRVTDITESLPALMTNVRMMYTIARFYSTAEHMTRLFTKITNQLVRRCKEQIMENGKIWDQDKVTLIGNMKVSVELANVYRQQYRLAKETLAAQPKSKQFDFDEQAIFLKFDLFSKRLHKLIDMFTTIHQFSSLEQHTHIEGLDTMLKSLNNIIDDVKRKPYDLLDYSRNAFDRDFLEFNVQINDLELQLQGFVNASFEHITSTEHALSLLAQFQAIMQRETLQQDLENKYMVIFQNYAKDLDAVQKLYEKNKYEPPVPRNAPPVAGNIMWARQLLRRIEAPMQRFAQNKNLLAAKESKKIIKTYNKVAKALIEFETLWHQAWIKSIEQCKAGLAAPLLVQHPDTGKILVNFDKEIMQLVREAKYMQRFNIAVPESAQMVLLQEEKFKFYHNQLTHLVREYEHVLGRVAPTIKPLLRPHLDDMERKIAPGFAVLTWTSLNIDGYLHRFKQGLARLEELVRKVVDLTENRVDSNLGAISSTLLVELPTDRSFTYEEFVSTQNRFQKKQAELLAIRNEEVRRAIEDLLTLVRNYPRENTEDVLDEKEVSLFVRHYSKNMYNAIMQCTLNSLQAMKRRLGSKTTTGIFFMERPFFDVDVELKVPSVCMNPTLEEIQAAINQCAKKVLTISKQLPAWGMDNVATYHEMIAGDKEVVKAVLRLTGSVEGIKTQVGEYIRTFDKYDFLWKEDLQAAYDHFMRSNPTLEAFEAELKKYMAIETEVTMINGVNNIGALSLETMPLKNSLKAEAVSWKTQFAQNLHKQCSDDLKAFDNYIRDTNSKFHRKIEDLEDVRNVMAVLKEVREKESEIDNLIGPIEEMYGLLMRYEVRVPKEETTMVSDLRYGWKKLKKVATEVSDNLTRLQVGFKRELIKEVKTFVVDAQMFRKDWEANGPMVPGLDPQEAVDRLRKFQQMFEVRKRKWENYSSGEELFGLPVTQYPELEQTEKEIQMLDRLYSLYVAVITTIKGYGDYFWVDVVEKIDEMGEQVQQYQNQSKKLPKALRDWPAYNACRKTIDDFLEMLPLFQALTHKSMRERHWKEVMRVTGHELNLAEDHFKLQHLLDCNVLRYREDIEDLTGAAVKEEIIEVKLNQLKADWATANLAFAEYKNRGPVILKPSDTSELMEKLEESQMTLGSMATNRYSAPFRDEVQAWSIKLSTVSEIIEQWLMVQSMWQYMEAVF
soluble on expression in E. coli: not soluble

MGHHHHHHSHMRGRIYLEPPTMRKKRLLDRKVLLKSDSPTGDVLLDETLKHIKATEPTETVQTWIELLTGETWNPFKLQYQLRNVRERIAKNLVEKGILTTEKQNFLLFDMTTHPVTNTTEKQRLVKKLQDSVLERWVNDPQRMDKRTLALLVLAHSSDVLENVFSSLTDDKYDVAMNRAKDLVELDPEVEGTKPSATEMIWAVLAAFNKS
soluble on expression in E. coli: not soluble

MGHHHHHHSHMIKQRTLKRIVQATGVGLHTGKKVTLTLRPAPANTGVIYRRTDLNPPVDFPADAKSVRDTMLCTCLVNEHDVRISTVEHLNAALAGLGIDNIVIEVNAPEIPIMDGSAAPFVYLLLDAGIDELNCAKKFVRIKETVRVEDGDKWAEFKPYNGFSLDFTIDFNHPAIDSSNQRYAMNFSADAFMRQISRARTFGFMRDIEYLQSRGLCLGGSFDCAIVVDDYRVLNEDGLRFEDEFVRHKMLDAIGDLFMCGHNIIGAFTAYKSGHALNNKLLQAVLAKQEAWEYVTFQDDAELPLAFKAPSAVLA
soluble on expression in E. coli: not soluble

MLFDSLPRPSERIAPGVAHLPGWLGVDKQAELVREIREIARTYADTPMAMLRPTLKSGGQMSVYQLHLGRYWHYPSYRYIDKIAGTTVPPVPDSLAALAPEALRAAAEVAEELAPWVETFVPEMVLVNYYPPGSRMGMHVDEFEESRAPVISVSIGDEALFRMGHTESRTQPWDDVTLCSGDLVVFGGPKRFAYHGVVRVNDATLPDGCGLEQGRINITIRQVSAAPNVQGR
soluble on expression in E. coli: not soluble

MKDTVKSLKQELQTITHWEHSQKDLWFWEKLGRLPFQVLDKLTPKVVHRKLGQLLDELGSYIQSGGQYLVNEGKVLDKLGVSSLAEVPHLPLETMDRVCDELIDARVTFAQLQGAATGIGGALTLAVDIPALLGLALKTLQEIAIVYGYDPKEKEERVFVVKCLQFAAADIVGKKAILDELSSFSNERGRVFSELQGWREVMMTFRDQYGWKKLFQAVPIIGVIFGSLFNKSFMEDIAETGKMLYRKRRIIEKLKQFEPGI
soluble on expression in E. coli: not soluble

MSLSEFEKYYPKISNLSTKLLDNPELGFKEYQTSKLIEDEIKSISPSIKVEHYLGTGLKVIFDNHKPKTIGIIAEMDDLYQPKHFKANPETGAAHACGHYTQVGIALAMINEIVKAERLKEFGTNLAFIFTPAEEFVDLDWRQEQKAKHKLDYFGGKQEAIKQGLFDHINYCVSVHAIGEEFKQRTVEINCDLAGFNFKYFDFYGEASHAAFAPESGVNAQSIATLFTTALALQRQQIKNPNRIRFNPVVIGENTESINVIPDHVKMGSDLSFFDIKYVQSLMKKFDQAAQGCASALGGKAKITTQVGYLPLHSNREMNALVKDTFLQEDRIPGLIENRGYTMAAGDIGDVGFIMPTIQIGYGGWTGTIHGSDFKLIDPEFVLKIFPEFVFNSTLNISNHLEKIDEYHHTKREYLKALKKMEGEGHHHHHH
soluble on expression in E. coli: not soluble

SLSTRGINFLHQWIANNVPETTKPDAVSISEITHKLFSDAKALGIKREDIDEEVESLTAHCSIGLCISTLA
soluble on expression in E. coli: not soluble

MGSDKIHHHHHHAQQTSEVDLIDIAGGMEKLTELKVSDLGKTIRYIPLETTDSCLIGDFPNIKLLDDKIMVYNGKQCLLFDKETGKFICSVGHRGDDPEAYSSTCGYLNPKNQLLYFNRDPNQLVKYNQKGNFAGVITIPSPETSTGNIQINRPGMNGFVFSDSIIIGHYVGGLGQRCPSSVLYFSDKGNYIDTIPNIIPELGTGQVGDINNISVRKGFGLLEGIIQIQYNNGKQSICVPGYTALWKCNDEIRFKELFTDTIYTLKHNQLEKYIIFNTGKYYWPASERTLTDNNSDRIMISYAIENDKLLYFQFIRGLYTDKHILYNGIYDKNTKVTNIALAENNFVDDLTHFMPFTPSFLNEKGECASLVQAADILTWLEEHPEVKIEKELGVLKNLNEESNPVVVLVK
soluble on expression in E. coli: not soluble

MGSDKIHHHHHHMTHEEHHAAKTLGIGKAIAVLTSGGDAQGMNAAVRAVVRVGIFTGARVFFVHEGYQGLVDGGDHIKEATWESVSMMLQLGGTVIGSARCKDFREREGRLRAAYNLVKRGITNLCVIGGDGSLTGADTFRSEWSDLLSDLQKAGKITDEEATKSSYLNIVGLVGSIDNDFCGTDMTIGTDSALHRIMEIVDAITTTAQSHQRTFVLEVMGRHCGYLALVTSLSCGADWVFIPECPPDDDWEEHLCRRLSETRTRGSRLNIIIVAEGAIDKNGKPITSEDIKNLVVKRLGYDTRVTVLGHVQRGGTPSAFDRILGSRMGVEAVMALLEGTPDTPACVVSLSGNQAVRLPLMECVQVTKDVTKAMDEKKFDEALKLRGRSFMNNWEVYKLLAHVRPPVSKSGSHTVAVMNVGAPAAGMNAAVRSTVRIGLIQGNRVLVVHDGFEGLAKGQIEEAGWSYVGGWTGQGGSKLGTKRTLPKKSFEQISANITKFNIQGLVIIGGFEAYTGGLELMEGRKQFDELCIPFVVIPATVSNNVPGSDFSVGADTALNTICTTCDRIKQSAAGTKRRVFIIETMGGYCGYLATMAGLAAGADAAYIFEEPFTIRDLQANVEHLVQKMKTTVKRGLVLRNEKCNENYTTDFIFNLYSEEGKGIFDSRKNVLGHMQQGGSPTPFDRNFATKMGAKAMNWMSGKIKESYRNGRIFANTPDSGCVLGMRKRALVFQPVAELKDQTDFEHRIPKEQWWLKLRPILKILAKYEIDLDTSDHAHLEHITRKRSGEAAV
soluble on expression in E. coli: not soluble

MAQLFFKYGAMNSGKTIEILKVAHNYEEQDKPVVLMTSGLDTRDGVGKVSSRIGLRRDAIPIFEETNVFDLINDLSYKPFCVLVDECQFLNKHHVIEFARIVDELDIPVMAFGLKNDFRNELFEGSKYLLLYADKLEELKTICWFCHKKATMNLHYIDGNPVYEGDQVQIGGNEAYYPVCRKHYFHPKTVNEEQ
soluble on expression in E. coli: not soluble
